For orientation: EC50 means the concentration needed to bring the measured effect to its halfway point. A low value points to a more potent agent. Usually stoichiometry N stands for the number of molecules, sites or subunits per partner or assembly.

The target of series [1] is T1, LYCHOS (Homo sapiens, UniProt Q7Z3F1, Y57A).
T1 sequence (Q7Z3F1 1-870 Y57A): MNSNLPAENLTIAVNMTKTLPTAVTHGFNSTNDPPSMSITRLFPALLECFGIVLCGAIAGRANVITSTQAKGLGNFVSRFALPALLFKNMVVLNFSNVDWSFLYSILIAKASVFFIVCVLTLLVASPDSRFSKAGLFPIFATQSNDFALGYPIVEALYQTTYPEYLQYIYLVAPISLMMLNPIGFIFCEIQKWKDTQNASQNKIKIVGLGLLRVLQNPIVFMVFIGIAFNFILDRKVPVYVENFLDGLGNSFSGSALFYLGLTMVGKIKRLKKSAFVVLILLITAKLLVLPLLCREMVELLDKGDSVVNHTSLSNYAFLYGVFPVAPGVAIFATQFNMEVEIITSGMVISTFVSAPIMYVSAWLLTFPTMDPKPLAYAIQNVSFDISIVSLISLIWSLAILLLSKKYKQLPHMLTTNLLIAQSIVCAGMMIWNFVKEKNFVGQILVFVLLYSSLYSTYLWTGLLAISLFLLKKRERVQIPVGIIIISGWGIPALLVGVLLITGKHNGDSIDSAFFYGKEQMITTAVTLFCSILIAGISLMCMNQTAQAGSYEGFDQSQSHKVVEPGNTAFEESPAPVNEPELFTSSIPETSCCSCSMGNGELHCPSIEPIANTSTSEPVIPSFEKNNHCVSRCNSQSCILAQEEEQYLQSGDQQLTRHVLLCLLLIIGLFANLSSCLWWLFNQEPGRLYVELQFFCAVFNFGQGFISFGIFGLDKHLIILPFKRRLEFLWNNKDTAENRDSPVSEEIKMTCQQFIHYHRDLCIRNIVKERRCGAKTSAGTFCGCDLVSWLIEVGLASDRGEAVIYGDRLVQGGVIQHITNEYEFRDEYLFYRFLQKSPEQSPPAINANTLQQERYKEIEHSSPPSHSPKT
Briefly: cryo-EM structure. The class given is binding.

Series [2] deals with LYCHOS (Homo sapiens, UniProt Q7Z3F1). Nature of the series: BRET recruitment of GATOR1. The class given is cell-based.
The series “cryo-EM structure” concerns the molecule itself. Briefly: cryo-EM structure.

Sequence of LYCHOS (Homo sapiens, UniProt Q7Z3F1) (Q8WTW4 whole entry partner, one chain of several): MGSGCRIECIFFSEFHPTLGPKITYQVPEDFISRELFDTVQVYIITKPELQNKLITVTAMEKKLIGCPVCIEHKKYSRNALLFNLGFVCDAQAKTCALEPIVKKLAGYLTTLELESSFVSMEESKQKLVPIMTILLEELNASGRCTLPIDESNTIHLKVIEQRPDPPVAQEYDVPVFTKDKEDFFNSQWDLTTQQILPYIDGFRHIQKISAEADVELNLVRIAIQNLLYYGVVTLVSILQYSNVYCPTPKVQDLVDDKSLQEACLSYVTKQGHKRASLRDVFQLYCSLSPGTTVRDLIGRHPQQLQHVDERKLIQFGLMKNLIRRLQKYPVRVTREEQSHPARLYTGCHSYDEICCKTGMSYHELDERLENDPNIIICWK
Sequence of LYCHOS (Homo sapiens, UniProt Q7Z3F1) (Q12980 whole entry partner, one chain of several): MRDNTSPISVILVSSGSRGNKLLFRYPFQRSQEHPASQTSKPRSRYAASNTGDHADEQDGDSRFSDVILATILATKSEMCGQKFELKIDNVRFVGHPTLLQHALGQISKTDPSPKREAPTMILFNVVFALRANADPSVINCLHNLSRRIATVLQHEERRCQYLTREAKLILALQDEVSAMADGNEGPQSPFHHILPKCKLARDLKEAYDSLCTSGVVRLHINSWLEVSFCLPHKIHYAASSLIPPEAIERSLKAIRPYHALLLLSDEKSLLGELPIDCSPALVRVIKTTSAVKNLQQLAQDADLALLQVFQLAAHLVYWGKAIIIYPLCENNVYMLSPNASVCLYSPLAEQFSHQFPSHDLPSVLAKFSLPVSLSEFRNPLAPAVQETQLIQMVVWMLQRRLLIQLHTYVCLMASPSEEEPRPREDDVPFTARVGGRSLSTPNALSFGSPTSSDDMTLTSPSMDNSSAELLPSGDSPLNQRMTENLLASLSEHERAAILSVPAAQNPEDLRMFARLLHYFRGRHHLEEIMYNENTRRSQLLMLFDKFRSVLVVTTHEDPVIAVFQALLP
Sequence of LYCHOS (Homo sapiens, UniProt Q7Z3F1) (O75140 whole entry partner, one chain of several): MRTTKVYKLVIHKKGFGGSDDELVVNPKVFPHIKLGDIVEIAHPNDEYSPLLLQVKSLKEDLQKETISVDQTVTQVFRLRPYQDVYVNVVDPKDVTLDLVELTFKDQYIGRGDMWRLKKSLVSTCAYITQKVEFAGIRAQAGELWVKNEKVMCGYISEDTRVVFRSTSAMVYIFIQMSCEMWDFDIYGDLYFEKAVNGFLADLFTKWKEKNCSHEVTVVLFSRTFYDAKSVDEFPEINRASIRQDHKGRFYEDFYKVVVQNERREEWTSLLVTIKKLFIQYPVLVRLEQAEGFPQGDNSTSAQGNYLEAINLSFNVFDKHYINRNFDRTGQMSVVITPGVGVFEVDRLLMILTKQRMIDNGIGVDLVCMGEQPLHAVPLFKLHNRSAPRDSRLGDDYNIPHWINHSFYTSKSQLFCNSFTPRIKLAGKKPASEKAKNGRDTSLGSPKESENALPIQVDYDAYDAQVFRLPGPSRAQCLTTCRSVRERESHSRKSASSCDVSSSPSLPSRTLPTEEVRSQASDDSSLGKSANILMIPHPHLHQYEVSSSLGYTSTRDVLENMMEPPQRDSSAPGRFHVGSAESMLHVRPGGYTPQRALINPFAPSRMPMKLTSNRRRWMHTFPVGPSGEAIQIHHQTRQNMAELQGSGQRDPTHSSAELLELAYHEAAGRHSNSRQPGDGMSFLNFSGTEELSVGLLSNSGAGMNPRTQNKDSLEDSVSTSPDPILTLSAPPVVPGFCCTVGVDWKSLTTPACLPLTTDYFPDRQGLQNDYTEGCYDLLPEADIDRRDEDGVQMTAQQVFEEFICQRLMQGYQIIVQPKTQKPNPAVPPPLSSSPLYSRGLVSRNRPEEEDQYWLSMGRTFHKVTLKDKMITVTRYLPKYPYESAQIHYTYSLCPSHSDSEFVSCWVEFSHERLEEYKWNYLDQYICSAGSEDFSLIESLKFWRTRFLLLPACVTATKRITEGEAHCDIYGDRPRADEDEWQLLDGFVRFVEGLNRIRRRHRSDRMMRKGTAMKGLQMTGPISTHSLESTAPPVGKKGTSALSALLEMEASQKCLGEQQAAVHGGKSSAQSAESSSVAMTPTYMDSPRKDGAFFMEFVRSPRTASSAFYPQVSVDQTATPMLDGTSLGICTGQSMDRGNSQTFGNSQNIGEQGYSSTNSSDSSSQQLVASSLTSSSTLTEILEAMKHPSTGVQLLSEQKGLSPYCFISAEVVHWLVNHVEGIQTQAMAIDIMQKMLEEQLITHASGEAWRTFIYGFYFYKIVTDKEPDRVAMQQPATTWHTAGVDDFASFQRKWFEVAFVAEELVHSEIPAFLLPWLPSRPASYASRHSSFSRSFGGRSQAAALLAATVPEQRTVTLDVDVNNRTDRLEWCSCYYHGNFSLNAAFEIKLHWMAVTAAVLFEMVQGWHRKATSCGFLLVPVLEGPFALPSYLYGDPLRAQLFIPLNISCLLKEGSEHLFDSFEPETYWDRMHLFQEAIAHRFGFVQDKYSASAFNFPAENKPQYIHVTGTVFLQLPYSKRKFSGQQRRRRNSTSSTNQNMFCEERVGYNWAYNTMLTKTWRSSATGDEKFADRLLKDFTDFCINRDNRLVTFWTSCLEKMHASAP

As to `CC(C)CCC[C@@H](C)[C@H]1CC[C@H]2[C@@H]3CC=C4C[C@@H](OC(=O)CCC(=O)O)CC[C@]4(C)[C@H]3CC[C@]12C` [CHS, cholesteryl hemisuccinate], the “cryo-EM structure (3.21 Å, contracted state)” value at LYCHOS [1] is “We found there exist two CHS molecules in the CBC, with which GLD is locked in contracted state”. As for `CC(C)CCC[C@@H](C)[C@H]1CC[C@H]2[C@@H]3CC=C4C[C@@H](O)CC[C@]4(C)[C@H]3CC[C@]12C` [cholesterol], on LYCHOS [2], the concentration giving a half-maximal response (EC50) came to 165 nM.

B1: LYCHOSPLD (permease-like domain of human LYCHOS) (domain or fragment)
chain: MNSNLPAENLTIAVNMTKTLPTAVTHGFNSTNDPPSMSITRLFPALLECFGIVLCGYIAGRANVITSTQAKGLGNFVSRFALPALLFKNMVVLNFSNVDWSFLYSILIAKASVFFIVCVLTLLVASPDSRFSKAGLFPIFATQSNDFALGYPIVEALYQTTYPEYLQYIYLVAPISLMMLNPIGFIFCEIQKWKDTQNASQNKIKIVGLGLLRVLQNPIVFMVFIGIAFNFILDRKVPVYVENFLDGLGNSFSGSALFYLGLTMVGKIKRLKKSAFVVLILLITAKLLVLPLLCREMVELLDKGDSVVNHTSLSNYAFLYGVFPVAPGVAIFATQFNMEVEIITSGMVISTFVSAPIMYVSAWLLTFPTM
Turning to B1, in the series “cryo-EM structure”, the “stoichiometry N” value stood at 2.

B2: human LYCHOS, wild type (lysosomal cholesterol signaling protein) (natural protein, UniProt Q7Z3F1 1-870, looked up)
chain: MNSNLPAENLTIAVNMTKTLPTAVTHGFNSTNDPPSMSITRLFPALLECFGIVLCGYIAGRANVITSTQAKGLGNFVSRFALPALLFKNMVVLNFSNVDWSFLYSILIAKASVFFIVCVLTLLVASPDSRFSKAGLFPIFATQSNDFALGYPIVEALYQTTYPEYLQYIYLVAPISLMMLNPIGFIFCEIQKWKDTQNASQNKIKIVGLGLLRVLQNPIVFMVFIGIAFNFILDRKVPVYVENFLDGLGNSFSGSALFYLGLTMVGKIKRLKKSAFVVLILLITAKLLVLPLLCREMVELLDKGDSVVNHTSLSNYAFLYGVFPVAPGVAIFATQFNMEVEIITSGMVISTFVSAPIMYVSAWLLTFPTMDPKPLAYAIQNVSFDISIVSLISLIWSLAILLLSKKYKQLPHMLTTNLLIAQSIVCAGMMIWNFVKEKNFVGQILVFVLLYSSLYSTYLWTGLLAISLFLLKKRERVQIPVGIIIISGWGIPALLVGVLLITGKHNGDSIDSAFFYGKEQMITTAVTLFCSILIAGISLMCMNQTAQAGSYEGFDQSQSHKVVEPGNTAFEESPAPVNEPELFTSSIPETSCCSCSMGNGELHCPSIEPIANTSTSEPVIPSFEKNNHCVSRCNSQSCILAQEEEQYLQSGDQQLTRHVLLCLLLIIGLFANLSSCLWWLFNQEPGRLYVELQFFCAVFNFGQGFISFGIFGLDKHLIILPFKRRLEFLWNNKDTAENRDSPVSEEIKMTCQQFIHYHRDLCIRNIVKERRCGAKTSAGTFCGCDLVSWLIEVGLASDRGEAVIYGDRLVQGGVIQHITNEYEFRDEYLFYRFLQKSPEQSPPAINANTLQQERYKEIEHSSPPSHSPKT
For B2, the “stoichiometry N” value in the series “cryo-EM structure” came out at 2.

B3: human LYCHOS Y57A (natural protein, UniProt Q7Z3F1 1-870, looked up)
chain: MNSNLPAENLTIAVNMTKTLPTAVTHGFNSTNDPPSMSITRLFPALLECFGIVLCGAIAGRANVITSTQAKGLGNFVSRFALPALLFKNMVVLNFSNVDWSFLYSILIAKASVFFIVCVLTLLVASPDSRFSKAGLFPIFATQSNDFALGYPIVEALYQTTYPEYLQYIYLVAPISLMMLNPIGFIFCEIQKWKDTQNASQNKIKIVGLGLLRVLQNPIVFMVFIGIAFNFILDRKVPVYVENFLDGLGNSFSGSALFYLGLTMVGKIKRLKKSAFVVLILLITAKLLVLPLLCREMVELLDKGDSVVNHTSLSNYAFLYGVFPVAPGVAIFATQFNMEVEIITSGMVISTFVSAPIMYVSAWLLTFPTMDPKPLAYAIQNVSFDISIVSLISLIWSLAILLLSKKYKQLPHMLTTNLLIAQSIVCAGMMIWNFVKEKNFVGQILVFVLLYSSLYSTYLWTGLLAISLFLLKKRERVQIPVGIIIISGWGIPALLVGVLLITGKHNGDSIDSAFFYGKEQMITTAVTLFCSILIAGISLMCMNQTAQAGSYEGFDQSQSHKVVEPGNTAFEESPAPVNEPELFTSSIPETSCCSCSMGNGELHCPSIEPIANTSTSEPVIPSFEKNNHCVSRCNSQSCILAQEEEQYLQSGDQQLTRHVLLCLLLIIGLFANLSSCLWWLFNQEPGRLYVELQFFCAVFNFGQGFISFGIFGLDKHLIILPFKRRLEFLWNNKDTAENRDSPVSEEIKMTCQQFIHYHRDLCIRNIVKERRCGAKTSAGTFCGCDLVSWLIEVGLASDRGEAVIYGDRLVQGGVIQHITNEYEFRDEYLFYRFLQKSPEQSPPAINANTLQQERYKEIEHSSPPSHSPKT
With B3, the “stoichiometry N” value in the series “cryo-EM structure” stood at 2.

For the origin of these results see PMC12287439 (Nature Communications, 2025).
